Measured values as given in patent US20230183753A1, “Methods of in Vitro Cell Delivery” (Intellia Therapeutics, Inc., priority 2020, published 2023).
Oligonucleotides are written 5' to 3', each unit as a sugar letter and its base; * is a phosphorothioate linkage, no mark a phosphodiester; rarer units and linkages stand in square brackets, end groups in braces. Plain capitals give the bases only. m = 2'-O-methyl; r = 2'-OH (RNA)

Assays:
B2M, CD3, MHC II = test: Flow cytometry of antigen negative T cells (B2M, CD3, MHC II) after BC22n or Cas9 editing, Example 16A; assay type: cell-based, human
Excerpt: Cells were subsequently washed, processed on a Cytoflex instrument (Beckman Coulter) and analyzed using the FlowJo software package. T cells were gated based on size, shape, viability, and antigen expression.

[1] = test system: B2M, TRAC, TRBC1/2, CIITA; test: NGS editing profile of T cells with BC22n or Cas9 mRNA, single or four guides, LNP titration, Example 16A; assay type: cell-based, human; details: LNP;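 further: activated T cells exposed to LNPs 72 h after activation, kept at 37 °C, harvested on day 10 post activation, editing measured by NGS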
Description: Cells were expanded in T cell basal media for 72 hours prior to LNP transfection.
LNPs were mixed to fixed total mRNA weight ratios of 6:3:2 for editor mRNA, guide RNA, and UGI mRNA respectively as described in Table 12. […] LNP mixtures were incubated for 5 minutes at 37° C. in T cell basal media substituting 6% cynomolgus monkey serum (Bioreclamation IVT, Cat. CYN220760) for fetal bovine serum.
T cells were incubated at 37° C. with 5% CO2 for the duration of the experiment.
In total, T cells were exposed to 6 different LNPs simultaneously (editor mRNA, UGI mRNA, 4 guides).

[2] = multiple guide delivery (four guides simultaneously), locus of the guide assayed, editor BC22n, total RNA 8.6 ng
[3] = multiple guide delivery (four guides simultaneously), locus of the guide assayed, editor BC22n, total RNA 17.2 ng
[4] = multiple guide delivery (four guides simultaneously), locus of the guide assayed, editor BC22n, total RNA 34.4 ng
[5] = multiple guide delivery (four guides simultaneously), locus of the guide assayed, editor BC22n, total RNA 68.8 ng
[6] = multiple guide delivery (four guides simultaneously), locus of the guide assayed, editor BC22n, total RNA 137.5 ng
[7] = multiple guide delivery (four guides simultaneously), locus of the guide assayed, editor BC22n, total RNA 275.0 ng
[8] = multiple guide delivery (four guides simultaneously), locus of the guide assayed, editor BC22n, total RNA 550.0 ng
[9] = multiple guide delivery (four guides simultaneously), locus of the guide assayed, editor Cas9, total RNA 8.6 ng
[10] = multiple guide delivery (four guides simultaneously), locus of the guide assayed, editor Cas9, total RNA 17.2 ng
[11] = multiple guide delivery (four guides simultaneously), locus of the guide assayed, editor Cas9, total RNA 34.4 ng
[12] = multiple guide delivery (four guides simultaneously), locus of the guide assayed, editor Cas9, total RNA 68.8 ng
[13] = multiple guide delivery (four guides simultaneously), locus of the guide assayed, editor Cas9, total RNA 137.5 ng
[14] = multiple guide delivery (four guides simultaneously), locus of the guide assayed, editor Cas9, total RNA 275.0 ng
[15] = multiple guide delivery (four guides simultaneously), locus of the guide assayed, editor Cas9, total RNA 550.0 ng
[16] = single guide delivery, editor BC22n, total RNA 8.6 ng
[17] = single guide delivery, editor BC22n, total RNA 17.2 ng
[18] = single guide delivery, editor BC22n, total RNA 34.4 ng
[19] = single guide delivery, editor BC22n, total RNA 68.8 ng
[20] = single guide delivery, editor BC22n, total RNA 137.5 ng
[21] = single guide delivery, editor BC22n, total RNA 275.0 ng
[22] = single guide delivery, editor BC22n, total RNA 550.0 ng
[23] = single guide delivery, editor Cas9, total RNA 8.6 ng
[24] = single guide delivery, editor Cas9, total RNA 17.2 ng
[25] = single guide delivery, editor Cas9, total RNA 34.4 ng
[26] = single guide delivery, editor Cas9, total RNA 68.8 ng
[27] = single guide delivery, editor Cas9, total RNA 137.5 ng
[28] = single guide delivery, editor Cas9, total RNA 275.0 ng
[29] = single guide delivery, editor Cas9, total RNA 550.0 ng

B1: G015995: guide targeting B2M (SEQ ID NO: 711) (nucleic acid)
guide: mU*mU*mA*rCrCrCrCrArCrUrUrArArCrUrArUrCrUrUrGrUrUrUrUrArGrAmGmCmUmAmGmAmAmAmUmAmGmCrArArGrUrUrArArArArUrArArGrGrCrUrArGrUrCrCrGrUrUrArUrCrAmAmCmUmUmGmAmAmAmAmAmGmUmGmGmCmAmCmCmGmAmGmUmCmGmGmUmGmCmU*mU*mU*mU
For B1, the “percent cells negative for antigen, B2M neg, Mean %” value (shortened to “percent cells negative … Mean %”) (B2M, CD3, MHC II; editor BC22n, total RNA 8.6 ng) was 44.0%, the “percent cells negative … Mean %” value (B2M, CD3, MHC II; editor BC22n, total RNA 17.2 ng) was 60.8% and the “percent cells negative … Mean %” value (B2M, CD3, MHC II; editor BC22n, total RNA 34.4 ng) was 75.7%. For the same molecule, the “percent cells negative … Mean %” value (B2M, CD3, MHC II; editor BC22n, total RNA 68.8 ng) was 83.9%, the “percent cells negative … Mean %” value (B2M, CD3, MHC II; editor BC22n, total RNA 137.5 ng) was 91.2% and the “percent cells negative … Mean %” value (B2M, CD3, MHC II; editor BC22n, total RNA 275.0 ng) was 94.4%. The “percent cells negative … Mean %” value (B2M, CD3, MHC II; editor BC22n, total RNA 550.0 ng) was 95.7%, the “percent cells negative … Mean %” value (B2M, CD3, MHC II; editor Cas9, total RNA 8.6 ng) was 13.9% and the “percent cells negative … Mean %” value (B2M, CD3, MHC II; editor Cas9, total RNA 17.2 ng) was 30.7%. The “percent cells negative … Mean %” value (B2M, CD3, MHC II; editor Cas9, total RNA 34.4 ng) was 53.4%, the “percent cells negative … Mean %” value (B2M, CD3, MHC II; editor Cas9, total RNA 68.8 ng) was 68.7% and the “percent cells negative … Mean %” value (B2M, CD3, MHC II; editor Cas9, total RNA 137.5 ng) was 82.1%. The “percent cells negative … Mean %” value (B2M, CD3, MHC II; editor Cas9, total RNA 275.0 ng) was 89.3%, the “percent cells negative … Mean %” value (B2M, CD3, MHC II; editor Cas9, total RNA 550.0 ng) was 91.3% and the C-to-A/G % mean [1, 2] was 3.8%. For the same molecule, the C-to-T % mean [1, 2] was 27.3%, the Indel % mean [1, 2] was 2.6% and the C-to-A/G % mean [1, 3] was 4.1%. For the same molecule, the C-to-T % mean [1, 3] was 47.2%, the Indel % mean [1, 3] was 3.0% and the C-to-A/G % mean [1, 4] was 3.9%. The C-to-T % mean [1, 4] was 61.2%, the Indel % mean [1, 4] was 2.6% and the C-to-A/G % mean [1, 5] was 2.9%. For the same molecule, the C-to-T % mean [1, 5] was 81.4%, the Indel % mean [1, 5] was 1.4% and the C-to-A/G % mean [1, 6] was 2.6%. It also gave a C-to-T % mean [1, 6] of 90.0%, an Indel % mean [1, 6] of 1.3% and a C-to-A/G % mean [1, 7] of 2.2%. The C-to-T % mean [1, 7] was 94.7%, the Indel % mean [1, 7] was 0.8% and the C-to-A/G % mean [1, 8] was 2.9%. The C-to-T % mean [1, 8] was 95.9%, the Indel % mean [1, 8] was 0.4% and the C-to-A/G % mean [1, 9] was 1.4%. For the same molecule, the C-to-T % mean [1, 9] was 0.3%, the Indel % mean [1, 9] was 5.0% and the C-to-A/G % mean [1, 10] was 1.3%. The C-to-T % mean [1, 10] was 0.3%, the Indel % mean [1, 10] was 10.5% and the C-to-A/G % mean [1, 11] was 1.1%. The C-to-T % mean [1, 11] was 0.3%, the Indel % mean [1, 11] was 19.3% and the C-to-A/G % mean [1, 12] was 0.9%. It also gave a C-to-T % mean [1, 12] of 0.3%, an Indel % mean [1, 12] of 34.4% and a C-to-A/G % mean [1, 13] of 0.7%. The C-to-T % mean [1, 13] was 0.2%, the Indel % mean [1, 13] was 51.1% and the C-to-A/G % mean [1, 14] was 0.5%. For the same molecule, the C-to-T % mean [1, 14] was 0.2%, the Indel % mean [1, 14] was 68.0% and the C-to-A/G % mean [1, 15] was 0.4%. It also gave a C-to-T % mean [1, 15] of 0.3%, an Indel % mean [1, 15] of 76.7% and a C-to-A/G % mean [1, 16] of 7.7%. It also gave a C-to-T % mean [1, 16] of 49.5%, an Indel % mean [1, 16] of 6.0% and a C-to-A/G % mean [1, 17] of 6.7%. It also gave a C-to-T % mean [1, 17] of 68.5%, an Indel % mean [1, 17] of 4.3% and a C-to-A/G % mean [1, 18] of 5.7%. The C-to-T % mean [1, 18] was 79.0%, the Indel % mean [1, 18] was 3.8% and the C-to-A/G % mean [1, 19] was 4.6%. It also gave a C-to-T % mean [1, 19] of 88.2%, an Indel % mean [1, 19] of 2.5% and a C-to-A/G % mean [1, 20] of 4.1%. The C-to-T % mean [1, 20] was 90.6%, the Indel % mean [1, 20] was 2.2% and the C-to-A/G % mean [1, 21] was 3.7%. It also gave a C-to-T % mean [1, 21] of 92.6%, an Indel % mean [1, 21] of 2.2% and a C-to-A/G % mean [1, 22] of 2.8%. It also gave a C-to-T % mean [1, 22] of 95.2%, an Indel % mean [1, 22] of 1.6% and a C-to-A/G % mean [1, 23] of 1.2%. For the same molecule, the C-to-T % mean [1, 23] was 0.3%, the Indel % mean [1, 23] was 23.7% and the C-to-A/G % mean [1, 24] was 0.9%. It also gave a C-to-T % mean [1, 24] of 0.3%, an Indel % mean [1, 24] of 41.1% and a C-to-A/G % mean [1, 25] of 0.6%. It also gave a C-to-T % mean [1, 25] of 0.3%, an Indel % mean [1, 25] of 59.4% and a C-to-A/G % mean [1, 26] of 0.4%. For the same molecule, the C-to-T % mean [1, 26] was 0.2%, the Indel % mean [1, 26] was 76.8% and the C-to-A/G % mean [1, 27] was 0.2%. The C-to-T % mean [1, 27] was 0.1%, the Indel % mean [1, 27] was 88.2% and the C-to-A/G % mean [1, 28] was 0.1%. For the same molecule, the C-to-T % mean [1, 28] was 0.1%, the Indel % mean [1, 28] was 95.1% and the C-to-A/G % mean [1, 29] was 0.1%. It also gave a C-to-T % mean [1, 29] of 0.1% and an Indel % mean [1, 29] of 97.5%.
